In the supplement of paper PMC12042874:
± gives the uncertainty stated by the source.

Experiment: amyloid nucleation score (Sup35N fusion, yeast selection) (log enrichment); library NNK2; higher = more nucleation; inactive = no reads after selection
How it was run: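 Random libraries were run with three technical output replicates. In each, psi-negative yeast expressing Sup35N fused to peptides of 20 random codons were induced 24 hours with 100 μM copper sulfate and grown 7 days at 30°C on medium lacking adenine and uracil, and input and output plasmid inserts were Illumina-sequenced. The nucleation score is the DiMSum log enrichment of output over input reads, centred on the mode score of non-aggregating sequences, and sequences under 100 input reads were excluded.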

| Substance | amyloid nucleation score |
| --- | --- |
| IVHILYECGAFRLPRGLY | -0.538 ± 0.38 |
| IVHLSHQG | -1.25 ± 0.62 |
| IVIPSSK | inactive |
| IVLEMLKVTRVGPKQIGWPW | 0.696 ± 0.38 |
| IVLQSGR | -1.12 ± 0.63 |
| IVMFQNFVQMDVNYCCFLEV | 6.768 ± 0.04 |
| IVNINYCFTFKVPNHNNSMK | 7.923 ± 0.04 |
| IVNTELVLVDKLDSCIVRYN | 3.02 ± 0.17 |
| IVPSQH | 0.271 ± 0.44 |
| IVSSGPIKLNTSCFRTAYML | -0.854 ± 0.63 |
| IVSVYATAIGGVRFRECCIG | -0.09 ± 0.34 |
| IVTAVITM | inactive |
| IVVRL | 0.639 ± 0.41 |
| IVYFGQVIIFMVMSNSVCSL | -1.38 ± 1 |
| IVYWSSEWRKPGAHDTLD | 0.451 ± 0.24 |
| IWSQW | -0.134 ± 1.1 |
| IWSSHRVSHGVILESGEVWA | -0.25 ± 0.42 |
| IWTRLGYRQVPRYSAIFSAV | 0.136 ± 0.37 |
| IWYESWEQHGKDVQVPMVTD | 0.623 ± 0.22 |
| IYACSCLIKVDFYEAIPIWV | inactive |
| IYEGIIVIFSDTGTLWRYWI | -2.09 ± 0.54 |
| IYGSYVLDLVGVNLAGKGEN | -0.347 ± 1 |
| IYHYPKRREGVIK | 0.224 ± 0.56 |
| IYKQLMVCHKCSDSAVTGYQ | 6.14 ± 0.075 |
| IYLQGAGLL | inactive |

| Substance | amyloid nucleation score |
| --- | --- |
| IYLSTCTYF | 0.155 ± 0.49 |
| IYRDPHNYCM | -0.751 ± 1.1 |
| IYRGESIIWVNNSWIEDSLR | 1.56 ± 0.12 |
| IYRRPMENI | -0.389 ± 0.36 |
| IYRTYYGMNACLINLCMFDN | 7.734 ± 0.055 |
| IYVGIHNLILMTSTLGVNKR | 6.06 ± 0.041 |
| IYWLKTPMLLYWGSPCPRNA | 0.058 ± 1 |
| KAFFFPQFCCIYGLGM | 8.903 ± 0.035 |
| KAKWFNFLFYNFLQYACLSQ | 1.37 ± 0.087 |
| KAKYTTILCCIDRCGCIGQY | 8.613 ± 0.046 |
| KARSRLLVFYKYTKGIWAQS | -0.147 ± 1.1 |
| KATRTFY | 0.495 ± 0.34 |
| KATSCFLDWCGCPWHLMALD | 0.496 ± 0.29 |
| KAWFLESSKYSYRSWFR | -0.641 ± 0.38 |
| KCILDRVRGTGLGIMKLKRG | 0.306 ± 0.65 |
| KCSKLRGYTCIMLSIGCLNY | 2.71 ± 0.07 |
| KCSSCEF | 0.768 ± 0.47 |
| KCWLLGHWEDFCTLSKMERN | inactive |
| KDCLTVVMLSLVHLRPCY | inactive |
| KDGKALT | inactive |
| KDLPFGTYGNGGAGSRTMRH | 0.19 ± 0.27 |
| KELYTSVSQGLCRYSISSCR | -0.786 ± 0.35 |
| KFACCRYVGVYYKTTYSILR | -1.17 ± 0.49 |
| KFCSRVFSQCMSYLSCLLDF | 0.17 ± 0.74 |
| KFKLLMTSRWDTFNVADTYD | 5.04 ± 0.042 |

| Substance | amyloid nucleation score |
| --- | --- |
| KFYIPSDLVLVRCPST | -0.883 ± 1.1 |
| KGDQKSTFCVRPFWESPNIV | -0.046 ± 0.74 |
| KGLWTISVSLWVV | 0.112 ± 0.18 |
| KGRFHNLTEPGRVQEKE | -1.32 ± 0.49 |
| KHLRFASEVNFSARVPPPWL | -0.229 ± 0.33 |
| KHSEDSYCFMSGLSGVICCK | 0.932 ± 0.19 |
| KHSIMRRKRGFPATKR | 0.722 ± 0.43 |
| KILNCTGSQVKS | -0.032 ± 0.25 |
| KILSYASLSAGSFLVQ | -0.531 ± 1.1 |
| KIRASVNSSRFFWFDAS | 2.96 ± 0.13 |
| KISFVALAVDARYGWCLFHY | 0.358 ± 0.24 |
| KISSLLGWLWRITIRRLGRA | 0.617 ± 0.65 |
| KISSMAVI | 0.069 ± 0.48 |
| KKKDSAKLLVTE | -0.409 ± 0.76 |
| KLAVCLCGSKHNDLGYRGDP | inactive |
| KLFQNHLIINCPAMVISNEQ | 7.609 ± 0.057 |
| KLGKPFARRKFCICNSQWVG | -0.743 ± 0.31 |
| KLGWTRLTPNVAHFHLIVGL | 0.583 ± 0.4 |
| KLGYHLSMIFVFRNVVCPYI | -0.711 ± 1.1 |
| KLHQNSKGCPGVLPVDGLKM | 0.82 ± 0.56 |
| KLKCHMSESLKWIGAVKSRR | 0.776 ± 0.43 |
| KLKSVRDLSCLSYHSDIKVK | 3.58 ± 0.055 |
| KLLPEWSWKG | 0.428 ± 0.39 |
| KLNLGGCLMSRVYC | 0.345 ± 0.16 |
| KLPIRLMTCASNFNLGNCWL | 6.003 ± 0.038 |

| Substance | amyloid nucleation score |
| --- | --- |
| KLRFYIYCFILLKCMTGART | inactive |
| KLSWRIRA | 0.403 ± 0.42 |
| KMAMTVLILPYVPGQLRLTE | 3.12 ± 0.1 |
| KNFFSRRTW | 2.98 ± 0.14 |
| KNGATLSCYILYSCGLMASV | -2.34 ± 0.62 |
| KNNSFWGISLTGLLGYIYTR | -0.627 ± 1 |
| KNRRFT | -0.493 ± 1.1 |
| KNSCSMYVMMCGSQVLGLVS | 7.75 ± 0.084 |
| KNTMIGSLRLVIYFSSGDKV | 7.17 ± 0.034 |
| KPLLVN | 0.271 ± 0.46 |
| KPSKYPVYLLGVVKVQVDYD | -0.849 ± 1.1 |
| KQFDMDAWLTWSRMVFMSPV | 0.044 ± 0.39 |
| KQLKWFCITK | -0.862 ± 0.45 |
| KQVNPPIA | -0.541 ± 1.1 |
| KRDRIAFPMEIDDIIKAWM | -0.929 ± 0.55 |
| KRFGLVCVIQQAQKWVNGTG | 0.179 ± 0.51 |
| KRGSAEFNQLDHYECTRYEC | inactive |
| KRHNR | 0.846 ± 0.48 |
| KRKISDSSPRDRWVALLKKL | 2.15 ± 0.15 |
| KRLVGVTAMMCSFFLYLFLE | 0.859 ± 0.35 |
| KRTWRFFYRL | inactive |
| KRYTHRCKPFTLHHLPVDAR | 1.25 ± 0.33 |
| KSCYIAV | -0.066 ± 0.45 |
| KSGGDDLESSWRCWASMGLM | 0.182 ± 0.31 |
| KSICARVFTIQMRNVSVQSS | 0.158 ± 0.43 |

| Substance | amyloid nucleation score |
| --- | --- |
| KSLDYFSECRDSPNML | -0.757 ± 0.48 |
| KSLKCFHLVRFTFS | -0.492 ± 0.36 |
| KSLYCVNFLCRPECANPSSS | 6.592 ± 0.029 |
| KSMFRTNLYIIILQSSTRFQ | -1.06 ± 0.76 |
| KSRFIFRVSVLDPRASVAWL | inactive |
| KSSSAVIW | -0.045 ± 0.53 |
| KSTATSYVMPK | -0.072 ± 0.25 |
| KSVQDNDMSPACRAD | 0.804 ± 0.45 |
| KSVTDSL | 0.878 ± 0.44 |
| KSYLWASAAVEGNCYNPVNR | -0.195 ± 0.48 |
| KTFTPSIELGYMGHCDCDT | -1.03 ± 0.45 |
| KTIQVGQVA | 1.24 ± 0.29 |
| KTIRRDVCIVVLSLQSDLNM | 5.62 ± 0.069 |
| KTLTVFAISYC | 0.482 ± 0.55 |
| KTNHEELKA | inactive |
| KTPVGYTRRGSPFTR | 1.16 ± 0.33 |
| KTREFNEQIVYGASVYVYQG | 0.672 ± 0.43 |
| KTRLPGVL | inactive |
| KVECEVWVRWVRCDGCAAGK | 1.22 ± 0.2 |
| KVFLFIFGLLTESPGCDQSP | -0.536 ± 0.4 |
| KVIWIRCLFLYMCWAAHG | -0.557 ± 0.78 |
| KVLMLQHPIGYLLNILTMS | -0.017 ± 0.41 |
| KVQHLQR | 0.403 ± 0.26 |
| KVRDCIMPRCRGRVCICNYG | -0.29 ± 0.25 |
| KVRTLINLRSRVTLRYDLSI | -0.237 ± 0.24 |

| Substance | amyloid nucleation score |
| --- | --- |
| KVSDRVGLEPKVCAQRRRNL | 0.025 ± 0.27 |
| KVSVTMHLAKMDFCRLWG | 7.11 ± 0.046 |
| KVYSKCFNGFRS | 0.164 ± 0.8 |
| KWDWICSVRCRVRSAYQMSN | inactive |
| KWIMWLDRYPDTSPCILYAQ | 4.42 ± 0.055 |
| KYCCWLRCGLIYNWGGNQDV | 5.14 ± 0.064 |
| KYGAPS | -0.029 ± 1.1 |
| KYMLLCSICIFRNQGKKFRL | 8.384 ± 0.052 |
| KYNLRDSNCSTCMFGSSRVS | 4.251 ± 0.04 |
| KYRKSGSERTRARTGVCTVW | 0.585 ± 0.66 |
| KYRTYPGVGIIGRVDSSLRT | 0.741 ± 0.51 |
| KYSNVTCWFSDHLGWRFHTF | inactive |
| LAFRFDVLKWINA | -0.263 ± 0.27 |
| LAGYNFLKETRDMVTIMAYE | inactive |
| LAHETLCLDTYRDPW | -1.54 ± 1 |
| LAMLRS | 1.17 ± 0.34 |
| LAPPKKAFISVKMSLDRYCV | -0.305 ± 0.26 |
| LAPVYEFEVWIHGIRGRCAW | 4.18 ± 0.065 |
| LAQPCQE | -0.033 ± 0.55 |
| LAQQRPLRQRTMRHGSRFTA | 0.671 ± 0.43 |
| LAQRSNFRASCWINFLGWLD | inactive |
| LASHVVWTDKN | 6.635 ± 0.041 |
| LATLVNCCTIVNRSNFGIMH | 6.985 ± 0.061 |
| LCASHIYL | 0.087 ± 0.79 |
| LCERYWKALK | inactive |

| Substance | amyloid nucleation score |
| --- | --- |
| LCFFT | 0.383 ± 0.74 |
| LCFMF | 0.4 ± 0.51 |
| LCGHSNTAVWARHPEYSLVS | inactive |
| LCHLVFVVSDWRQRLRVFTV | 4.37 ± 0.05 |
| LCLELFKQSVQFGLC | 0.325 ± 0.35 |
| LCLTR | -0.307 ± 0.63 |
| LCNSEIFNMANISMS | 0.498 ± 0.19 |
| LCNSTNSESIIVLDITALTH | 0.405 ± 0.51 |
| LCQNKTMTIGRFKIGHKWYP | 0.004 ± 1.1 |
| LCRNSSVFRCSGK | 0.311 ± 0.17 |
| LCSRFALWVRKF | -0.291 ± 0.63 |
| LCSSKETDMPFLVLQSLKSN | -0.791 ± 0.78 |
| LCVYMFT | 3.51 ± 0.12 |
| LCWEVRTLEFIGFTQSYGKG | -0.005 ± 0.33 |
| LCYGFEYHVDGLYNVSYESS | 0.298 ± 0.37 |
| LDAGCRMYWGVRLEFRICNL | 4.79 ± 0.062 |
| LDDPCSHYILGSGHDHVLRR | 0.697 ± 0.81 |
| LDGITSIDG | -1.15 ± 0.74 |
| LDIYYMMYYFRFSWD | -2.64 ± 0.75 |
| LDLALSQH | 1.54 ± 0.53 |
| LDLNFEWFW | inactive |
| LDPSVLMLWLFYRVQSLHVS | 0.008 ± 0.35 |
| LDSSYY | inactive |
| LDWAWACSWVVA | 0.389 ± 0.8 |
